The Kd is the constant that tells how readily two partners part at equilibrium.

Assay [1] addresses T1, human ATP Binding Cassette Subfamily C Member 1 (ABCC1) (UniProt P33527 1-1531). Put plainly: FACS titration on C6 cells.
In assay [2] the target is T2, cynomolgus monkey ABCC1 (UniProt Q864R9 1-1531). Put plainly: FACS titration on C6 cells.
Assay [3] addresses T2, cynomolgus monkey ABCC1. Nature of the assay: FACS titration on C6 cells; C6 cells.
For assay [4], the target named is T1, human ATP Binding Cassette Subfamily C …. Nature of the assay: FACS titration on C6-hC1 cells.
Assay [5] has as its target T2, cynomolgus monkey ABCC1. Put plainly: FACS titration on C6-cC1 cells.
In assay [6] the target is T1, human ATP Binding Cassette Subfamily C …. Put plainly: FACS titration on H69AR cells.
For assay [7] the target is unchanged. Nature of the assay: FACS titration on C6 cells. This is another data set of the same source.
For assay [8] the target is unchanged. Nature of the assay: FACS cell binding.
Assay [9] deals with T2, cynomolgus monkey ABCC1. Put plainly: FACS cell binding.
Assay [10] has as its target T2, cynomolgus monkey ABCC1. Nature of the assay: FACS titration on C6-cC1 cells; C6 cells.

T2 sequence (Q864R9 whole entry): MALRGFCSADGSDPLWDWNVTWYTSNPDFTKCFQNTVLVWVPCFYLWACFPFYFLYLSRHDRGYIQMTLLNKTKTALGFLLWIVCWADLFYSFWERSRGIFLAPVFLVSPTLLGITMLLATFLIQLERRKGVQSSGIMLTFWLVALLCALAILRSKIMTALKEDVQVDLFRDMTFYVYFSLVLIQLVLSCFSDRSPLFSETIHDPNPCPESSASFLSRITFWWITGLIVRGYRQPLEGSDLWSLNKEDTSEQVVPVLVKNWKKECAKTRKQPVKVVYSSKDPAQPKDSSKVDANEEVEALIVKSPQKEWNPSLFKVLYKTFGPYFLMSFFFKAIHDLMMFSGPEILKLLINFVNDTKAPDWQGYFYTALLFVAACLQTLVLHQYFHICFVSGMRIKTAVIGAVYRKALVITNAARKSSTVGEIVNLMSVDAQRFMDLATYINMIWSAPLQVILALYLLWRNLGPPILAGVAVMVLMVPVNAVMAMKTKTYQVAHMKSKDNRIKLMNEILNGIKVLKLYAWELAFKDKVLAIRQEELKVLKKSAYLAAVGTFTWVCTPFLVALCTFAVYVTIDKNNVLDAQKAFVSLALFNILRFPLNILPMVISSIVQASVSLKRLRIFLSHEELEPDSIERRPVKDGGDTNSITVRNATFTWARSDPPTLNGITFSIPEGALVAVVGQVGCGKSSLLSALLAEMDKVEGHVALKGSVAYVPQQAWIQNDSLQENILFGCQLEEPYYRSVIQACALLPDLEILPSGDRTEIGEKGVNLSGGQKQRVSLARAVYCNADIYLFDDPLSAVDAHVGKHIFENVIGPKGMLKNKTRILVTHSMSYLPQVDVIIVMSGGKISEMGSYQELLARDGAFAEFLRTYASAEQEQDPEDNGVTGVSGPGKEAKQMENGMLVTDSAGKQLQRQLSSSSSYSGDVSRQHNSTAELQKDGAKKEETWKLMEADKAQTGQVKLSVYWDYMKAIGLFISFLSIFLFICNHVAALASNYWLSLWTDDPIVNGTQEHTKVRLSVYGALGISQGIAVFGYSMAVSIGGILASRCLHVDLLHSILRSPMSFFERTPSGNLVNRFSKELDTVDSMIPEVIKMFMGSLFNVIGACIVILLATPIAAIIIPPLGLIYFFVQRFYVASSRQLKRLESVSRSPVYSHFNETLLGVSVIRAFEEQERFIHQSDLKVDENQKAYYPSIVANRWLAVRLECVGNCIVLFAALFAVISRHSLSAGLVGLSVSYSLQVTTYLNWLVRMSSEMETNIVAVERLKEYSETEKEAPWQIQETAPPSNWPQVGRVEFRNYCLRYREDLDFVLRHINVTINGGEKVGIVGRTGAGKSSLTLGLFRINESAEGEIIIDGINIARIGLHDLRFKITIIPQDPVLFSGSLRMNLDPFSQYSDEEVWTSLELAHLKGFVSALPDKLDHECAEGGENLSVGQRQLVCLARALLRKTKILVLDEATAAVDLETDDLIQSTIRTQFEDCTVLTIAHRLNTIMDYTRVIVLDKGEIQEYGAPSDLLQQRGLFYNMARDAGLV

B1: C1.835 (antibody, V domains shown)
VH: EVQLLESGPGLVQPSQTLSLTCTVSGFSLTNNGVSWVRQPPGKGLEWVAAMSSGGNIYYNSAFKSRLSISRHTSKSQVLLKMNSLQTEDTAMYFCARHRGYYGYNWGYFDYWGQGVMVTVSS
VL: NIQLTQSPSLLSASVGDRVTLSCKGSQNIYNYLAWYQQKLGEAPKLLIYKTNSLQTDIPSRFSGSGSGTDYTLTISSLHSEDLATYYCCQYNNGYTFGAGTKLELK
For B1, the Kd in [1] was determined as 144 nM; with cynomolgus monkey ABCC1 [2] it was 575 nM.

B2: C1.877 (antibody, V domains shown)
VH: EVQLTESGPGLVQPSQTLSLTCTVSGFSLTSNGVSWVRQPPGKGLEWIAAISSGGSTYYNSAFKSRLSISRHTSKSQVLLNMNSLQTEDTAMYFCARHRGYYWSNWGYFDYWGQGVMVTVSS
VL: DIVMTQSPSLLSASVGDRVTLSCKGSQNINNYLAWYQQKLGEAPKLLIYETNSLQTGIPSRFSGSGSGTDYTLTLSSLHSEDLATYYCYQYNDGYTFGAGTKLEIK
B2 displayed a Kd with cynomolgus monkey ABCC1 [3] of 66.8 nM.

B3: C1.863 (antibody, V domains shown)
VH: EVQRKESGPGLVQPSQTLSLTCTVSGFSLTNNGVSWVRQPPGKGLEWIAAISSGGSIYYNSAFKSRLSISRITSKSQVLLKMNSLQTEDTAMYFCARHRGYYGYNWGYFDYWGQGVMVTVSS
VL: NIQMTQSPSLLSASVGDRVTLSCKGSQNIYNYLAWYQQKLGEAPKLLIYKTSSLQAGIPSRFSGSGSDTDYTLTISSLHSEDLATYYCCQYNNGYTFGAGTKLEIK
In the case of B3, the values for the Kd (in assay [4]; with cynomolgus monkey ABCC1 [5]) were 11.7 nM and 27.3 nM, respectively.

B4: C1.827 (antibody, V domains shown)
VH: EVQLVESGPGLVQPSQTLSLTCTVSGFSLTNNGVSWVRQPPGKGLEWIAAISNGGNIYHNSALKSRLSISRNTAKSQVLLKMNSLQTEDTAMYFCARHRGYYGYNWGYFDYWGQGASVTVSS
VL: NIQVTQSPSLLSASVGDRVTLSCKGSQNIYNYLAWYQQKLGEAPKLLIYKTNSLQTGIPSRFSGSGSGTDYTLTISSLHSEDLATYYCCQYNNGYTFGAGTKLELK
Regarding B4, the figures for the Kd (in assay [1]; in the assay with cynomolgus monkey ABCC1 [2]) were 134 nM and 67.3 nM, respectively.

B5: C1.787a (antibody, V domains shown)
VH: EVQLTESGPGLVQPSQTLSLTCTVSGFSLTSNGVSWVRQPPGKGLEWIAAISSGGSTYYNSAFKSRLSISRHTSKSQVLLNMNSLQTEDTAMYFCARHRGYYWSNWGYFDYWGQGVMVTVSS
VL: NIQLTQSPSLLSASVGDRVTLSCKGSQNINNYLAWYQQKLGEAPKLLIYKTNSLQTGIPSRFSGSGSGTDYTLTLSSLHSEDLATYYCCQYNDGYTFGAGTKLELK
Regarding B5, the values for the Kd (in assay [4]; with cynomolgus monkey ABCC1 [5]; in assay [6]) were 7.8 nM, 27.6 nM and 4.3 nM, respectively.

B6: C1.778b (antibody, V domains shown)
VH: EVQRKESGPGLVQPSQTLSLTCTVSGFSLTNNGVSWVRQPPGKGLEWIAAISSGGSIYYNSAFKSRLSISRITSKSQVLLKMNSLQTEDTAMYFCARHRGYYGYNWGYFDYWGQGVMVTVSS
VL: NIQLTQSPSLLSASVGDRVTLSCKGSQNIDNYLAWYQQKLGEPPKLLIYKTNSLQTGIPSRFSGSGSGTDYTLTISSLHSEDLATYYCYQYNNGYTFGAGTKLELKR
For B6, the Kd in the assay with cynomolgus monkey ABCC1 [3] amounted to 28.2 nM; in [6] it was 8.7 nM; in assay [7], 667 nM.

B7: C1.831.hu41 (antibody, V domains shown)
VH: EVQLQESGPGLVKPSETLSLTCTVSGFSLTSQGVSWVRQPPGKGLEWIAAISSGGNIYYNSVLKSRLTISRDTSKNQVSLKLSSVTAADTAVYYCTRERGWNYPFITSGYYFDYWGQGTLVTVSS
VL: DIQLTQSPSSLSASVGDRVTITCKAGQNINNYLAWYQQKPGKAPKLLIYNANSLQTGIPSRFSGSGSGTDYTLTISSLQPEDFATYYCQQYNSWYTFGQGTKLEIK
B7: the Kd in assay [8] worked out at 21 nM; with cynomolgus monkey ABCC1 [9], 20 nM.

B8: C1.831.hu11 (antibody, V domains shown)
VH: EVQLQESGPGLVKPSETLSLTCTVSGFSLTSNGVSWVRQPPGKGLEWIAAISSGGNIYYNSVLKSRLTISRDTSKNQVSLKLSSVTAADTAVYYCTRERGWNYPFITNGYYFDYWGQGTLVTVSS
VL: DIQLTQSPSSLSASVGDRVTITCKAGQNINNYLAWYQQKPGKAPKLLIYNANSLQTGIPSRFSGSGSGTDYTLTISSLQPEDFATYYCQQYNSWYTFGQGTKLEIK
With B8, the Kd with cynomolgus monkey ABCC1 [10] was determined as 11 nM; in assay [8], 21 nM; in the assay with cynomolgus monkey ABCC1 [9], 27 nM.

B9: C1.861.hu41 (antibody, V domains shown)
VH: EVQLQESGPGLVKPSETLSLTCTVSGFSLTSSGVTWVRQPPGKGLEWIAAISSGGNIYYNSAVKSRLTISRDTSKNQVSLKLSSVTAADTAVYYCTRARGTTTAYVMDAWGQGTTVTVSS
VL: DVQLTQSPSSLSASVGDRVTITCKSSQSLLYSGNQKNYLAWYQQKPGKSPKLLIYWASTRQSGVPSRFSGSGSGTDFTLTISSLQPEDVATYYCQQYYDVLMNMFGGGTKLEIK
Take B9: the Kd amounted to 156 nM in assay [8] and 64 nM with cynomolgus monkey ABCC1 [9].

B10: C1.861.hu61 (antibody, V domains shown)
VH: EVQLVESGGGLIQPGGSLRLSCAVSGFSLTSSGVTWVRQPPGKGLEWIAAISSGGNIYYNSAVKSRLTISRDTSKNTVYLQMNSLRAEDTAVYFCTRARGTTTAYVMDAWGQGTTVTVSS
VL: DVQLTQSPSSLSASVGDRVTITCKSSQSLLYSGNQKNYLAWYQQKPGKSPKLLIYWASTRQSGVPSRFSGSGSGTDFTLTISSLQPEDVATYYCQQYYDVLMNMFGGGTKLEIK
Consider B10, for which the Kd was found to be 218 nM in [8] and 135 nM with cynomolgus monkey ABCC1 [9].

B11: C1.861.hu21 (antibody, V domains shown)
VH: EVQLVESGGGLIQPGGSLRLSCAVSGFSLTSNGVTWVRQPPGKGLEWIAAISSGGNIYYNSAVKSRLTISRDTSKNTVYLQMNSLRAEDTAVYFCTRARGTTTAYVMDAWGQGTTVTVSS
VL: DVQLTQSPSSLSASVGDRVTITCKSSQSLLYSGNQKNYLAWYQQKPGKSPKLLIYWASTRQSGVPSRFSGSGSGTDFTLTISSLQPEDVATYYCQQYYDVLMNMFGGGTKLEIK
Regarding B11, the values for the Kd (in the assay with cynomolgus monkey ABCC1 [10]; in assay [8]; with cynomolgus monkey ABCC1 [9]) were 11 nM, 38 nM and 37 nM, respectively.

B12: C1.505 (antibody, V domains shown)
VH: EVQLTESGPGLVQPSQTLSLTCTVSGFSLTSNGVSWVRLPPGKGLEWIAAISSGGNIYYNSALKSRLSISRDTSKSQVFLKMNSLQTEDTAIYFCTRERGWNYPGITNGYYFDYWGQGASVTVSS
VL: DIVLTQSPSLLSASVGDRVILSCKAGQKINNYLAWYQQKLGEAPKLLIYNANSLQTGIPSRFSGSGSGTDYTLTISSLQPEDVATYFCQQYNSWYTFGAGTKLEIK
As for B12, the Kd in assay [1] was 35.2 nM; in assay [6], 7.1 nM; in assay [7], 81.2 nM.

B13: C1.831 (antibody, V domains shown)
VH: EVQLTESGPGLVQPSQTLSLTCTVSGFSLTSNGVSWVRQPPGKGLEWIAAISSGGNIYYNSVLKSRLSISRDTSKSQVFLKMSSVQTEDTAIYFCTRERGWNYPFITNGYYFDYWGQGVMVTVSS
VL: EIMLTQSPSLLSASVGDRVTLSCKAGQNINNYLAWYQQKLGEAPKLLIYNANSLQTGIPSRFSGSGSGTDYTLTISSLQPEDVATYFCQQYNSWYTFGAGTKLEIK
For B13, the results for the Kd (in assay [1]; with cynomolgus monkey ABCC1 [2]) were 11.4 nM and 8.7 nM, respectively.

B14: C1.844.hu21 (antibody, V domains shown)
VH: EVQLVESGGGLIQPGGSLRLSCAVSGFSLTSNGVIWVRQPPGKGLEWIAAISSGGNIYYNSGLKSRLTISRDTSKNTVYLQMNSLRAEDTAVYYCTRARGTTTAYVMDAWGQGTLVTVSS
VL: DIVMTQSPDSLAVSLGERATINCKSSQSLLYSVNQKNYLAWYQQKPGQSPKLLIYWASTRQSGVPDRFSGSGSGTDFTLTISSLQAEDVAVYYCQQYYDTLMKMFGAGTKLELK
As for B14, the Kd with cynomolgus monkey ABCC1 [10] is 11 nM; in assay [8] it was 103 nM; with cynomolgus monkey ABCC1 [9], 83 nM.

B15: C1.861 (antibody, V domains shown)
VH: EVQLKESGPGLVQPSQTLSLTCTVSGFSLTSNGVTWVRQPPGKGLEWIAAISSGGNIYYNSAVKSRLSISRDTSKSQVFLKMNSLQTEDTAIYFCTRARGTTTAYVMDAWGQGASVTVSS
VL: DVVLTQSPSSLAVSAGETVTINCKSSQSLLYSGNQKNYLAWYQQKPGQSPKLLIYWASTRQSGVPDRFIGSGSGTDFTLTISSVQAEDLAIYYCQQYYDVLMNMFGAGTKLEIK
Regarding B15, the Kd in [4] was found to be 14.7 nM; with cynomolgus monkey ABCC1 [3], 60.1 nM; with cynomolgus monkey ABCC1 [5] it was 28 nM.

Values taken from US20230272117A1 (published 2023).
